Reference: paper PMC5428714, “The structures of a naturally empty cowpea mosaic virus particle and its genome-containing counterpart by cryo-electron microscopy” (Scientific Reports, 2017)

Key:
[1] = target: T1, Cowpea mosaic virus (CPMV) Large (L) coat protein (Cowpea mosaic virus, UniProt P03599 460-833); experiment: cryo-EM structure; purified CPMV-T particles (naturally empty capsid assembled in planta), ~1.92 mg/ml, vitrified at 4 °C; icosahedral (I3) symmetry imposed; 4.25 Å; details: both partners purified
T1 construct: Large (L) coat protein of Cowpea mosaic virus, cut from the RNA-2-encoded precursor polyprotein (VP60) by the 24 K viral proteinase; numbers count on: the mature L subunit; 60 copies each of L and S form the icosahedral capsid; also called L subunit; large coat protein subunit; source: for the cleaved eVLP map: recombinant eVLP from transient expression of VP60 and the 24 K protease
T1 sequence: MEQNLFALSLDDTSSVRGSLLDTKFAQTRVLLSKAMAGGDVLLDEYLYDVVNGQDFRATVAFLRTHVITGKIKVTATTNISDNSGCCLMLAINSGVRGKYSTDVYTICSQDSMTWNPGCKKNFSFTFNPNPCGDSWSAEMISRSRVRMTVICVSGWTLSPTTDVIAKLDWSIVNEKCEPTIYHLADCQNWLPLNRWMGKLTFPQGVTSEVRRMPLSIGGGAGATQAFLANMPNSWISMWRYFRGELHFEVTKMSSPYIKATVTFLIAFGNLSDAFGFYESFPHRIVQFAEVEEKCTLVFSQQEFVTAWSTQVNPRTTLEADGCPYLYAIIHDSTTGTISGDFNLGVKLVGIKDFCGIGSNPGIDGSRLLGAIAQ

[2] = target: the molecule itself; experiment: as above

B1: Cowpea mosaic virus (CPMV) Small (S) coat protein with the C terminal extension (as in CPMV-T) (natural protein)
chain: GPVCAEASDVYSPCMIASTPPAPFSDVTAVTFDLINGKITPVGDDNWNTHIYNPPIMNVLRTAAWKSGTIHVQLNVRGAGVKRADWDGQVFVYLRQSMNPESYDARTFVISQPGSAMLNFSFDIIGPNSGFEFAESPWANQTTWYLECVATNPRQIQQFEVNMRFDPNFRVAGNILMPPFPLSTETPPLLKFRFRDIERSKRSVMVGHTATAA
notes: Small (S) coat protein of Cowpea mosaic virus, cut from the RNA-2-encoded precursor polyprotein (VP60), with the 24 amino acid C terminal extension kept; density to Thr184 and from Pro188 to Ile197; numbers count on: the mature S subunit; Naturally empty particles are cleaved more slowly and keep the C-terminus for longer; residues after Ile197 are not seen in the map; also called S subunit; …
binding result [1]: binds
binding result [2]: binds
